Reference: article PMC8449060, “A fully reversible 25-hydroxy steroid kinase involved in oxygen-independent cholesterol side-chain oxidation” (The Journal of Biological Chemistry, 2021)

Experiments:
Assay in all cases: purified protein
[1] = test system: C[C@H](CCCC(C)(C)OP(=O)(O)O)[C@H]1CC[C@H]2[C@@H]3CCC4=CC(=O)C=C[C@]4(C)[C@H]3CC[C@]12C; conditions: reverse direction, 5 mM ADP, 10 mM MgCl2, 9% (w/v) HPCD, 50 mM Tris/HCl pH 7.8, 30 °C, apparent, tested only up to 4 mM, no saturation
[2] = test system: Nc1ncnc2c1ncn2[C@@H]1O[C@H](COP(=O)(O)OP(=O)(O)OP(=O)(O)O)[C@@H](O)[C@H]1O; conditions: forward direction, 1 mM 25-OH-CDO, 10 mM MgCl2, 9% (w/v) HPCD, 50 mM Tris/HCl pH 7.8, 30 °C
[3] = test system: C[C@H](CCCC(C)(C)O)[C@H]1CC[C@H]2[C@@H]3CCC4=CC(=O)C=C[C@]4(C)[C@H]3CC[C@]12C; conditions: forward direction, 5 mM ATP, 10 mM MgCl2, 9% (w/v) HPCD, 50 mM Tris/HCl pH 7.8, 30 °C
[4] = test system: Nc1ncnc2c1ncn2[C@@H]1O[C@H](COP(=O)(O)OP(=O)(O)O)[C@@H](O)[C@H]1O; conditions: reverse direction, 1 mM 25-phospho-CDO, 10 mM MgCl2, 9% (w/v) HPCD, 50 mM Tris/HCl pH 7.8, 30 °C

25-HSK (25-hydroxy-steroid kinase) (Sterolibacterium denitrificans)
Km [1]: 8000 ± 700 µM | Km [2]: 800 ± 50 µM | Km [3]: 300 ± 10 µM | Km [4]: 35 ± 3 µM
